Results as given in US12099068B2, “Biomarkers for graft-versus-host disease” (Incyte Corporation, priority 2018, dated 2024).

B1: PRELP (protein, UniProt P51888 21-382, looked up)
Prolargin: QPTRRPRPGTGPGRRPRPRPRPTPSFPQPDEPAEPTDLPPPLPPGPPSIFPDCPRECYCPPDFPSALYCDSRNLRKVPVIPPRIHYLYLQNNFITELPVESFQNATGLRWINLDNNRIRKIDQRVLEKLPGLVFLYMEKNQLEEVPSALPRNLEQLRLSQNHISRIPPGVFSKLENLLLLDLQHNRLSDGVFKPDTFHGLKNLMQLNLAHNILRKMPPRVPTAIHQLYLDSNKIETIPNGYFKSFPNLAFIRLNYNKLTDRGLPKNSFNISNLLVLHLSHNRISSVPAINNRLEHLYLNNNSIEKINGTQICPNDLVAFHDFSSDLENVPHLRYLRLDGNYLKPPIPLDLMMCFRLLQSVVI
B2: HO-1 (protein, UniProt P09601 1-288, looked up)
Heme oxygenase 1: MERPQPDSMPQDLSEALKEATKEVHTQAENAEFMRNFQKGQVTRDGFKLVMASLYHIYVALEEEIERNKESPVFAPVYFPEELHRKAALEQDLAFWYGPRWQEVIPYTPAMQRYVKRLHEVGRTEPELLVAHAYTRYLGDLSGGQVLKKIAQKALDLPSSGEGLAFFTFPNIASATKFKQLYRSRMNSLEMTPAVRQRVIEEAKTAFLLNIQLFEELQELLTHDTKDQSPSRAPGLRQRASNKVQDSAPVETPRGKPPLNTRSQAPLLRWVLTLSFLVATVAVGLYAM
B3: NCF2 (protein, UniProt P19878 1-526, looked up)
Neutrophil cytosol factor 2: MSLVEAISLWNEGVLAADKKDWKGALDAFSAVQDPHSRICFNIGCMYTILKNMTEAEKAFTRSINRDKHLAVAYFQRGMLYYQTEKYDLAIKDLKEALIQLRGNQLIDYKILGLQFKLFACEVLYNIAFMYAKKEEWKKAEEQLALATSMKSEPRHSKIDKAMECVWKQKLYEPVVIPVGKLFRPNERQVAQLAKKDYLGKATVVASVVDQDSFSGFAPLQPQAAEPPPRPKTPEIFRALEGEAHRVLFGFVPETKEELQVMPGNIVFVLKKGNDNWATVMFNGQKGLVPCNYLEPVELRIHPQQQPQEESSPQSDIPAPPSSKAPGRPQLSPGQKQKEEPKEVKLSVPMPYTLKVHYKYTVVMKTQPGLPYSQVRDMVSKKLELRLEHTKLSYRPRDSNELVPLSEDSMKDAWGQVKNYCLTLWCENTVGDQGFPDEPKESEKADANNQTTEPQLKKGSQVEALFSYEATQPEDLEFQEGDIILVLSKVNEEWLEGECKGKVGIFPKVFVEDCATTDLESTRREV
B4: DAPP1 (protein, UniProt Q9UN19 1-280, looked up)
Dual adapter for …: MGRAELLEGKMSTQDPSDLWSRSDGEAELLQDLGWYHGNLTRHAAEALLLSNGCDGSYLLRDSNETTGLYSLSVRAKDSVKHFHVEYTGYSFKFGFNEFSSLKDFVKHFANQPLIGSETGTLMVLKHPYPRKVEEPSIYESVRVHTAMQTGRTEDDLVPTAPSLGTKEGYLTKQGGLVKTWKTRWFTLHRNELKYFKDQMSPEPIRILDLTECSAVQFDYSQERVNCFCLVFPFRTFYLCAKTGVEADEWIKILRWKLSQIRKQLNQGEGTIRSRSFIFK
B5: CXCL16 (protein, UniProt Q9H2A7 30-254, looked up)
C-X-C motif chemokine 16: NEGSVTGSCYCGKRISSDSPPSVQFMNRLRKHLRAYHRCLYYTRFQLLSWSVCGGNKDPWVQELMSCLDLKECGHAYSGIVAHQKHLLPTSPPISQASEGASSDIHTPAQMLLSTLQSTQRPTLPVGSLSSDKELTRPNETTIHTAGHSLAAGPEAGENQKQPEKNAGPTARTSATVPVLCLLAIIFILTAALSYVLCKRRRGQSPQSSPDLPVHYIPVAPDSNT
B6: IDUA (protein, UniProt P35475 28-653, looked up)
Alpha-L-iduronidase: APHLVHVDAARALWPLRRFWRSTGFCPPLPHSQADQYVLSWDQQLNLAYVGAVPHRGIKQVRTHWLLELVTTRGSTGRGLSYNFTHLDGYLDLLRENQLLPGFELMGSASGHFTDFEDKQQVFEWKDLVSSLARRYIGRYGLAHVSKWNFETWNEPDHHDFDNVSMTMQGFLNYYDACSEGLRAASPALRLGGPGDSFHTPPRSPLSWGLLRHCHDGTNFFTGEAGVRLDYISLHRKGARSSISILEQEKVVAQQIRQLFPKFADTPIYNDEADPLVGWSLPQPWRADVTYAAMVVKVIAQHQNLLLANTTSAFPYALLSNDNAFLSYHPHPFAQRTLTARFQVNNTRPPHVQLLRKPVLTAMGLLALLDEEQLWAEVSQAGTVLDSNHTVGVLASAHRPQGPADAWRAAVLIYASDDTRAHPNRSVAVTLRLRGVPPGPGLVYVTRYLDNGLCSPDGEWRRLGRPVFPTAEQFRRMRAAEDPVAAAPRPLPAGGRLTLRPALRLPSLLLVHVCARPEKPPGQVTRLRALPLTQGQLVLVWSDEHVGSKCLWTYEIQFSQDGKAYTPVSRKPSTFNLFVFSPDTGAVSGSYRVRALDYWARPGPFSDPVPYLEVPVPRGPPSPGNP
B7: SELP (protein, UniProt P16109 42-830, looked up)
P-selectin: WTYHYSTKAYSWNISRKYCQNRYTDLVAIQNKNEIDYLNKVLPYYSSYYWIGIRKNNKTWTWVGTKKALTNEAENWADNEPNNKRNNEDCVEIYIKSPSAPGKWNDEHCLKKKHALCYTASCQDMSCSKQGECLETIGNYTCSCYPGFYGPECEYVRECGELELPQHVLMNCSHPLGNFSFNSQCSFHCTDGYQVNGPSKLECLASGIWTNKPPQCLAAQCPPLKIPERGNMTCLHSAKAFQHQSSCSFSCEEGFALVGPEVVQCTASGVWTAPAPVCKAVQCQHLEAPSEGTMDCVHPLTAFAYGSSCKFECQPGYRVRGLDMLRCIDSGHWSAPLPTCEAISCEPLESPVHGSMDCSPSLRAFQYDTNCSFRCAEGFMLRGADIVRCDNLGQWTAPAPVCQALQCQDLPVPNEARVNCSHPFGAFRYQSVCSFTCNEGLLLVGASVLQCLATGNWNSVPPECQAIPCTPLLSPQNGTMTCVQPLGSSSYKSTCQFICDEGYSLSGPERLDCTRSGRWTDSPPMCEAIKCPELFAPEQGSLDCSDTRGEFNVGSTCHFSCDNGFKLEGPNNVECTTSGRWSATPPTCKGIASLPTPGVQCPALTTPGQGTMYCRHHPGTFGFNTTCYFGCNAGFTLIGDSTLSCRPSGQWTAVTPACRAVKCSELHVNKPIAMNCSNLWGNFSYGSICSFHCLEGQLLNGSAQTACQENGHWSTTVPTCQAGPLTIQEALTYFGGAVASTIGLIMGGTLLALLRKRFRQKDDGKCPLNPHSHLGTYGVFTNAAFDPSP
B8: VSIG2 (protein, UniProt Q96IQ7 24-327, looked up)
V-set and immunoglobulin …: VEVKVPTEPLSTPLGKTAELTCTYSTSVGDSFALEWSFVQPGKPISESHPILYFTNGHLYPTGSKSKRVSLLQNPPTVGVATLKLTDVHPSDTGTYLCQVNNPPDFYTNGLGLINLTVLVPPSNPLCSQSGQTSVGGSTALRCSSSEGAPKPVYNWVRLGTFPTPSPGSMVQDEVSGQLILTNLSLTSSGTYRCVATNQMGSASCELTLSVTEPSQGRVAGALIGVLLGVLLLSVAAFCLVRFQKERGKKPKETYGGSDLREDAIAPGISEHTCMRADSSKGFLERPSSASTVTTTKSKLPMVV
B9: SLITRK2 (protein, UniProt Q9H156 22-845, looked up)
SLIT and NTRK-like protein 2: RKTAKDICKIRCLCEEKENVLNINCENKGFTTVSLLQPPQYRIYQLFLNGNLLTRLYPNEFVNYSNAVTLHLGNNGLQEIRTGAFSGLKTLKRLHLNNNKLEILREDTFLGLESLEYLQADYNYISAIEAGAFSKLNKLKVLILNDNLLLSLPSNVFRFVLLTHLDLRGNRLKVMPFAGVLEHIGGIMEIQLEENPWNCTCDLLPLKAWLDTITVFVGEIVCETPFRLHGKDVTQLTRQDLCPRKSASDSSQRGSHADTHVQRLSPTMNPALNPTRAPKASRPPKMRNRPTPRVTVSKDRQSFGPIMVYQTKSPVPLTCPSSCVCTSQSSDNGLNVNCQERKFTNISDLQPKPTSPKKLYLTGNYLQTVYKNDLLEYSSLDLLHLGNNRIAVIQEGAFTNLTSLRRLYLNGNYLEVLYPSMFDGLQSLQYLYLEYNVIKEIKPLTFDALINLQLLFLNNNLLRSLPDNIFGGTALTRLNLRNNHFSHLPVKGVLDQLPAFIQIDLQENPWDCTCDIMGLKDWTEHANSPVIINEVTCESPAKHAGEILKFLGREAICPDSPNLSDGTVLSMNHNTDTPRSLSVSPSSYPELHTEVPLSVLILGLLVVFILSVCFGAGLFVFVLKRRKGVPSVPRNTNNLDVSSFQLQYGSYNTETHDKTDGHVYNYIPPPVGQMCQNPIYMQKEGDPVAYYRNLQEFSYSNLEEKKEEPATPAYTISATELLEKQATPREPELLYQNIAERVKELPSAGLVHYNFCTLPKRQFAPSYESRRQNQDRINKTVLYGTPRKCFVGQSKPNHPLLQAKPQSEPDYLEVLEKQTAISQL
B10: CEACAM5 (protein, UniProt P06731 35-685, looked up)
Cell adhesion molecule CEACAM5: KLTIESTPFNVAEGKEVLLLVHNLPQHLFGYSWYKGERVDGNRQIIGYVIGTQQATPGPAYSGREIIYPNASLLIQNIIQNDTGFYTLHVIKSDLVNEEATGQFRVYPELPKPSISSNNSKPVEDKDAVAFTCEPETQDATYLWWVNNQSLPVSPRLQLSNGNRTLTLFNVTRNDTASYKCETQNPVSARRSDSVILNVLYGPDAPTISPLNTSYRSGENLNLSCHAASNPPAQYSWFVNGTFQQSTQELFIPNITVNNSGSYTCQAHNSDTGLNRTTVTTITVYAEPPKPFITSNNSNPVEDEDAVALTCEPEIQNTTYLWWVNNQSLPVSPRLQLSNDNRTLTLLSVTRNDVGPYECGIQNELSVDHSDPVILNVLYGPDDPTISPSYTYYRPGVNLSLSCHAASNPPAQYSWLIDGNIQQHTQELFISNITEKNSGLYTCQANNSASGHSRTTVKTITVSAELPKPSISSNNSKPVEDKDAVAFTCEPEAQNTTYLWWVNGQSLPVSPRLQLSNGNRTLTLFNVTRNDARAYVCGIQNSVSANRSDPVTLDVLYGPDTPIISPPDSSYLSGANLNLSCHSASNPSPQYSWRINGIPQQHTQVLFIAKITPNNNGTYACFVSNLATGRNNSIVKSITVSASGTSPGLSA
B11: CLUL1 (protein, UniProt Q15846 21-466, looked up)
Clusterin-like protein 1: APTWKDKTAISENLKSFSEVGEIDADEEVKKALTGIKQMKIMMERKEKEHTNLMSTLKKCREEKQEALKLLNEVQEHLEEEERLCRESLADSWGECRSCLENNCMRIYTTCQPSWSSVKNKIERFFRKIYQFLFPFHEDNEKDLPISEKLIEEDAQLTQMEDVFSQLTVDVNSLFNRSFNVFRQMQQEFDQTFQSHFISDTDLTEPYFFPAFSKEPMTKADLEQCWDIPNFFQLFCNFSVSIYESVSETITKMLKAIEDLPKQDKAPDHGGLISKMLPGQDRGLCGELDQNLSRCFKFHEKCQKCQAHLSEDCPDVPALHTELDEAIRLVNVSNQQYGQILQMTRKHLEDTAYLVEKMRGQFGWVSELANQAPETEIIFNSIQVVPRIHEGNISKQDETMMTDLSILPSSNFTLKIPLEESAESSNFIGYVVAKALQHFKEHFKTW

Test system: plasma proteins
Test: Plasma proteins modulated between baseline and day 28 in responders (CR, VGPR, PR; n = 19), Example 6 (Table 13)
Assay type: in vivo, human
Details: plasma protein (OLINK NPX); responders (CR, VGPR, PR; n = 19); itacitinib 200 mg or 300 mg QD with corticosteroids; day 28 vs baseline
Summary of the method: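 Longitudinal comparison, day 28 versus baseline, with steroid-naive (N=10) and steroid-refractory (N=18) patients combined. Proteins measured by OLINK proximity extension, log2 normalized protein expression. Differences tested by t tests, ANOVA, Pearson correlation, P<0.05 significant.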

Row | Molecule | Fold Change, Increased Expression from Baseline to Day 28 | Fold Change, Decreased Expression from Baseline to Day 28
1 | B1 | 1.1833 | –
2 | B2 | 1.3293 | –
3 | B3 | – | −2.4951
4 | B4 | – | −1.3805
5 | B5 | 1.2028 | –
6 | B6 | – | −1.3887
7 | B7 | – | −1.9244
8 | B8 | 1.2163 | –
9 | B9 | 1.2986 | –
10 | B10 | 1.6422 | –
11 | B11 | 1.3108 | –
